Assay results taken from the supplement of paper PMC10126150.
± gives the standard deviation of the averaged measurements.

System: ATP
Assay: switch fluorescence ratio, 500 uM ATP over buffer (Cy3 cluster intensity, sum of 5 cycles each) (fold (ratio)); higher = stronger signal-on switching upon ATP binding; sequences stand for … in TCGTCGGCAGCGTCAGATGTGTATAAGAGACAGTTTTTTTTTTTTTTTTTTTTTTTTT…TC
Conditions: aptamer strand: ATP DNA aptamer (quencher-CACCTGGGGGAGTATTGCGGAGGAAGG + anchor), 100 nM annealed; ATP concentration: 500 uM
Outline: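 Exposure to 500 uM ATP lasted 15 min at 22 °C before imaging, and a selection-buffer image was taken beforehand, for Cy3-labelled switching-strand clusters on a modified Illumina MiSeq flow-cell annealed to 100 nM quencher-labelled ATP aptamer. Five buffer/ATP cycles were run with NaOH stripping and re-annealing between them. The fluorescence ratio per cluster is summed target-cycle over summed buffer-cycle Cy3 intensity, averaged per switch-domain sequence. Clusters outside 100-1000 RFU were excluded.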

With AATTTGGGCG as the sequence, how does the switch fluorescence ratio read?
The switch fluorescence ratio was 1 ± 0.04.

How did the switch fluorescence ratio turn out when AATTTGGTAC was run?
The switch fluorescence ratio was 1.068 ± 0.0027.

AATTTGGTCG was tested. Which switch fluorescence ratio did it give?
Its switch fluorescence ratio is 0.978 ± 0.03.

How did the switch fluorescence ratio turn out when AATTTGGTGC was run?
The switch fluorescence ratio was 1.011 ± 0.0064.

Which switch fluorescence ratio does the source give for AATTTGTCCA here?
Its switch fluorescence ratio is 0.98 ± 0.015.

How did the switch fluorescence ratio turn out when AATTTGTGGA was run?
Its switch fluorescence ratio is 0.9855 ± 0.007.

AATTTGTGGC was tested. Which switch fluorescence ratio did it give?
Its switch fluorescence ratio is 0.995 ± 0.034.

AATTTTATGG was tested. Which switch fluorescence ratio did it give?
The switch fluorescence ratio was 1.01 ± 0.022.

How did the switch fluorescence ratio turn out when AATTTTCGGA was run?
The switch fluorescence ratio was 0.991 ± 0.013.

With AATTTTCTGC as the sequence, how does the switch fluorescence ratio read?
Its switch fluorescence ratio is 1.01 ± 0.053.

How did the switch fluorescence ratio turn out when AATTTTGAGG was run?
Its switch fluorescence ratio is 0.984 ± 0.034.

With AATTTTGCGG as the sequence, how does the switch fluorescence ratio read?
The switch fluorescence ratio was 1.01 ± 0.038.

For AATTTTTAAA, which switch fluorescence ratio is on record?
Its switch fluorescence ratio is 0.968 ± 0.038.

For AATTTTTAAC, which switch fluorescence ratio is on record?
The switch fluorescence ratio was 1 ± 0.028.

With AATTTTTAGG as the sequence, how does the switch fluorescence ratio read?
Its switch fluorescence ratio is 0.98099 ± 2.5e-05.

How did the switch fluorescence ratio turn out when AATTTTTCAT was run?
The switch fluorescence ratio was 0.977 ± 0.028.

AATTTTTCCG was tested. Which switch fluorescence ratio did it give?
Its switch fluorescence ratio is 1.05 ± 0.036.

For ACAAAACTC, which switch fluorescence ratio is on record?
The switch fluorescence ratio was 1.27 ± 0.37.

Which switch fluorescence ratio does the source give for ACAAACGCTG here?
The switch fluorescence ratio was 1.28 ± 0.0027.

For ACAAAGCGCC, which switch fluorescence ratio is on record?
The switch fluorescence ratio was 1.06 ± 0.015.

How did the switch fluorescence ratio turn out when ACAAATGCAA was run?
Its switch fluorescence ratio is 1.12 ± 0.037.

ACAAATGCAG was tested. Which switch fluorescence ratio did it give?
The switch fluorescence ratio was 1.01 ± 0.013.

With ACAAATTGCG as the sequence, how does the switch fluorescence ratio read?
Its switch fluorescence ratio is 0.991 ± 0.027.

With ACAAGAGATA as the sequence, how does the switch fluorescence ratio read?
The switch fluorescence ratio was 1.01 ± 0.015.

How did the switch fluorescence ratio turn out when ACAAGCTGAC was run?
The switch fluorescence ratio was 1.27 ± 0.15.

For ACAAGGATA, which switch fluorescence ratio is on record?
Its switch fluorescence ratio is 1.006 ± 0.0077.

For ACAAGGTATA, which switch fluorescence ratio is on record?
Its switch fluorescence ratio is 1.15 ± 0.15.

For ACAAGTATGT, which switch fluorescence ratio is on record?
The switch fluorescence ratio was 1.02 ± 0.041.

How did the switch fluorescence ratio turn out when ACAAGTGATC was run?
The switch fluorescence ratio was 1.076 ± 0.0017.

With ACAATCGAGC as the sequence, how does the switch fluorescence ratio read?
The switch fluorescence ratio was 0.988 ± 0.047.

ACAATCGTTT was tested. Which switch fluorescence ratio did it give?
The switch fluorescence ratio was 1.01 ± 0.014.

For ACAATCTAAA, which switch fluorescence ratio is on record?
Its switch fluorescence ratio is 1.033 ± 0.0091.

For ACACAGTACT, which switch fluorescence ratio is on record?
The switch fluorescence ratio was 1.37 ± 0.09.

How did the switch fluorescence ratio turn out when ACACATCCGG was run?
Its switch fluorescence ratio is 1.06 ± 0.015.

How did the switch fluorescence ratio turn out when ACACATCGGA was run?
Its switch fluorescence ratio is 1.005 ± 0.0057.

Which switch fluorescence ratio does the source give for ACACCACGTT here?
Its switch fluorescence ratio is 1.56 ± 0.057.

Which switch fluorescence ratio does the source give for ACACCCCCGT here?
The switch fluorescence ratio was 1.67 ± 0.19.

How did the switch fluorescence ratio turn out when ACACCCTTGG was run?
The switch fluorescence ratio was 1.08 ± 0.098.

For ACACCTGAGT, which switch fluorescence ratio is on record?
The switch fluorescence ratio was 1.16 ± 0.011.

With ACACGCCCAA as the sequence, how does the switch fluorescence ratio read?
The switch fluorescence ratio was 1.12 ± 0.069.

For ACACGGCGGC, which switch fluorescence ratio is on record?
Its switch fluorescence ratio is 1.07 ± 0.033.

For ACACGGGGCG, which switch fluorescence ratio is on record?
The switch fluorescence ratio was 0.984 ± 0.066.

With ACACGGGGCT as the sequence, how does the switch fluorescence ratio read?
The switch fluorescence ratio was 1.01 ± 0.051.

Which switch fluorescence ratio does the source give for ACACGGGTGC here?
Its switch fluorescence ratio is 1.74 ± 0.062.

For ACACGTGCCC, which switch fluorescence ratio is on record?
Its switch fluorescence ratio is 1 ± 0.028.

ACACTAGGTT was tested. Which switch fluorescence ratio did it give?
The switch fluorescence ratio was 1.06 ± 0.051.

With ACACTCTTGA as the sequence, how does the switch fluorescence ratio read?
Its switch fluorescence ratio is 1.03 ± 0.025.

For ACACTGCCAT, which switch fluorescence ratio is on record?
Its switch fluorescence ratio is 1.16 ± 0.032.

With ACAGCAGTTG as the sequence, how does the switch fluorescence ratio read?
The switch fluorescence ratio was 1.04 ± 0.042.

How did the switch fluorescence ratio turn out when ACAGCCCGGA was run?
The switch fluorescence ratio was 1.07 ± 0.04.

For ACAGCGCCGG, which switch fluorescence ratio is on record?
The switch fluorescence ratio was 1.018 ± 0.002.

For ACAGCGGACG, which switch fluorescence ratio is on record?
The switch fluorescence ratio was 1.02 ± 0.031.

For ACAGCGTGGG, which switch fluorescence ratio is on record?
The switch fluorescence ratio was 1.041 ± 0.0097.

For ACAGCTGAAG, which switch fluorescence ratio is on record?
Its switch fluorescence ratio is 1.002 ± 0.0066.

Which switch fluorescence ratio does the source give for ACAGCTGAGC here?
The switch fluorescence ratio was 0.999 ± 0.0079.

For ACAGGAAGGG, which switch fluorescence ratio is on record?
Its switch fluorescence ratio is 1 ± 0.01.

ACAGGATGGT was tested. Which switch fluorescence ratio did it give?
The switch fluorescence ratio was 0.998 ± 0.024.

For ACAGGCAGGA, which switch fluorescence ratio is on record?
The switch fluorescence ratio was 1.01 ± 0.022.

With ACAGGCCAGG as the sequence, how does the switch fluorescence ratio read?
Its switch fluorescence ratio is 1.23 ± 0.082.

With ACAGGGGAAT as the sequence, how does the switch fluorescence ratio read?
The switch fluorescence ratio was 1.01 ± 0.012.

Which switch fluorescence ratio does the source give for ACAGGGGTAA here?
The switch fluorescence ratio was 1.01 ± 0.013.

Which switch fluorescence ratio does the source give for ACAGGGGTTA here?
Its switch fluorescence ratio is 1.25 ± 0.4.

For ACAGGGGTTT, which switch fluorescence ratio is on record?
The switch fluorescence ratio was 1.37 ± 0.7.

ACAGGGTGCA was tested. Which switch fluorescence ratio did it give?
Its switch fluorescence ratio is 1.03 ± 0.052.

Which switch fluorescence ratio does the source give for ACAGGGTTAC here?
Its switch fluorescence ratio is 0.991 ± 0.027.

Which switch fluorescence ratio does the source give for ACAGGTATTA here?
Its switch fluorescence ratio is 0.996 ± 0.017.

ACAGGTCATT was tested. Which switch fluorescence ratio did it give?
Its switch fluorescence ratio is 1.01 ± 0.034.

For ACAGTATGGC, which switch fluorescence ratio is on record?
The switch fluorescence ratio was 0.952 ± 0.041.

With ACAGTATGGG as the sequence, how does the switch fluorescence ratio read?
The switch fluorescence ratio was 1.03 ± 0.021.

With ACAGTCAAGG as the sequence, how does the switch fluorescence ratio read?
The switch fluorescence ratio was 1.02 ± 0.035.

For ACAGTCAGAT, which switch fluorescence ratio is on record?
Its switch fluorescence ratio is 1.057 ± 0.0067.

How did the switch fluorescence ratio turn out when ACAGTCATGG was run?
Its switch fluorescence ratio is 1.021 ± 0.0092.

For ACAGTCTCTG, which switch fluorescence ratio is on record?
The switch fluorescence ratio was 1.03 ± 0.018.

Which switch fluorescence ratio does the source give for ACAGTGCCGG here?
Its switch fluorescence ratio is 1.02 ± 0.055.

How did the switch fluorescence ratio turn out when ACAGTGCGGC was run?
Its switch fluorescence ratio is 0.961 ± 0.035.

With ACAGTTCCCC as the sequence, how does the switch fluorescence ratio read?
The switch fluorescence ratio was 1.13 ± 0.25.

With ACAGTTGTTA as the sequence, how does the switch fluorescence ratio read?
The switch fluorescence ratio was 0.98717 ± 0.00059.

ACAGTTTTGC was tested. Which switch fluorescence ratio did it give?
Its switch fluorescence ratio is 0.985 ± 0.02.

With ACATAAAGGG as the sequence, how does the switch fluorescence ratio read?
The switch fluorescence ratio was 1.03 ± 0.024.

For ACATAATTTC, which switch fluorescence ratio is on record?
The switch fluorescence ratio was 1.03 ± 0.02.

With ACATACCGTG as the sequence, how does the switch fluorescence ratio read?
The switch fluorescence ratio was 1.21 ± 0.038.

With ACATACGAGT as the sequence, how does the switch fluorescence ratio read?
Its switch fluorescence ratio is 1.38 ± 0.029.

ACATACGCAA was tested. Which switch fluorescence ratio did it give?
Its switch fluorescence ratio is 4.63 ± 0.56.

ACATATGGTA was tested. Which switch fluorescence ratio did it give?
The switch fluorescence ratio was 0.9801 ± 0.0085.

ACATATTGTG was tested. Which switch fluorescence ratio did it give?
Its switch fluorescence ratio is 1.03 ± 0.062.

How did the switch fluorescence ratio turn out when ACATCAGATG was run?
The switch fluorescence ratio was 1.005 ± 0.0023.

ACATCTTCGA was tested. Which switch fluorescence ratio did it give?
The switch fluorescence ratio was 0.97 ± 0.046.

Which switch fluorescence ratio does the source give for ACATGAATGG here?
Its switch fluorescence ratio is 0.969 ± 0.016.

With ACATGATCTC as the sequence, how does the switch fluorescence ratio read?
The switch fluorescence ratio was 0.993 ± 0.021.

Which switch fluorescence ratio does the source give for ACATGATGGC here?
The switch fluorescence ratio was 1.05 ± 0.018.

How did the switch fluorescence ratio turn out when ACATGATTCG was run?
Its switch fluorescence ratio is 0.99 ± 0.03.

Which switch fluorescence ratio does the source give for ACATGATTGC here?
The switch fluorescence ratio was 1.029 ± 0.0054.

How did the switch fluorescence ratio turn out when ACATGATTGG was run?
The switch fluorescence ratio was 0.97 ± 0.037.

For ACATGCTACG, which switch fluorescence ratio is on record?
The switch fluorescence ratio was 1.05 ± 0.034.

Which switch fluorescence ratio does the source give for ACATGGGGGG here?
The switch fluorescence ratio was 0.993 ± 0.038.

ACATGGGTGC was tested. Which switch fluorescence ratio did it give?
The switch fluorescence ratio was 1.11 ± 0.063.

With ACATGTTGCC as the sequence, how does the switch fluorescence ratio read?
Its switch fluorescence ratio is 1.02 ± 0.0074.

How did the switch fluorescence ratio turn out when ACATGTTGTT was run?
The switch fluorescence ratio was 0.993 ± 0.024.

With ACATTCCAGT as the sequence, how does the switch fluorescence ratio read?
Its switch fluorescence ratio is 1.14 ± 0.15.

For ACATTCGCGT, which switch fluorescence ratio is on record?
Its switch fluorescence ratio is 1.05 ± 0.018.
